Assay results: the supplement of paper PMC9170038

What was measured:
[1] = system: MS2 coat protein; test: apparent KD of MS2 coat protein; designed switch direction (-1 OFF switch, 1 ON switch): 1; higher = weaker reporter binding
Outline: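 Designed RNA switches with common flanks were transcribed on Illumina chips by stalled E. coli RNA polymerase and titrated with SNAP-549-labelled MS2 coat protein, from 0.7 or 1.5 nM doubling to 3 µM, in Tris-HCl pH 7.5 buffer with KCl, MgCl2, BSA, DTT, tRNA and Tween-20. Steps lasted 0.8–1.5 h (lowest) to 10–20 min (highest). Titrations ran without input, with 200 uM small-molecule ligand, or with an oligonucleotide input. Normalised cluster fluorescence was curve-fitted, and apparent KD is the per-design median over clusters.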

[2] = system: MS2 coat protein; test: apparent KD of MS2 coat protein; higher = weaker reporter binding; conditions: Eterna round: R107
Outline: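 SNAP-549-labelled MS2 coat protein was titrated onto designed RNA switches that had been transcribed on-chip from Illumina sequencing clusters. Amounts doubled from 0.7 or 1.5 nM to 3 µM in 100 mM Tris-HCl pH 7.5, 80 mM KCl, 4 mM MgCl2, with constant ligand or without. Apparent KD is the median per design of normalised cluster binding-curve fits.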

[3] = input ligand: microRNA oligo, concentration not stated
[4] = Eterna round: R95, input ligand: FMN 200 uM
[5] = Eterna round: R95, input ligand: microRNA oligo, concentration not stated
[6] = Eterna round: R95, input ligand: none
[7] = input ligand: theophylline 20 uM
[8] = input ligand: theophylline 2 mM
[9] = input ligand: tryptophan 2.4 mM

Sequence: GAGGGCGAAAGCGACAUGAGGAUCACCCAUGUCCUCGGAGGGCAGGAUAUCCGGCAGUAGCCGAAGGAGAAGGGUCGAAAAGAA [AK SSNG3-V2-35.1] (Eterna round: R96, puzzle: Same State NG 3)
- apparent KD of MS2 coat protein ([1]; input ligand: FMN 200 uM): 53.4 nM
- apparent KD of MS2 coat protein [1, 3]: 35.7 nM
- apparent KD of MS2 coat protein ([1]; input ligand: none): 53.6 nM

Sequence: GAUAGACAUGAGGAUCACCCAUGUGACAAAACCACAGGAUAUCACACAGGAGUAACUGCGUGAGAAGGGUGAGACU [Edatinti] (puzzle: Same State 1)
- apparent KD of MS2 coat protein [1, 4]: 109 nM
- apparent KD of MS2 coat protein [1, 5]: 13.4 nM
- apparent KD of MS2 coat protein [1, 6]: 32.4 nM

Sequence: GGAAACAAGAGAGGAUAUGCAGAGGAUCACCCUGCAGAAGGCUCCCUAGAGAGGAUAUGCAGAGGAUCACCCUGCAGAAGGCUC [pwkr ssNG DX.25] (Eterna round: R96, puzzle: Same State NG 1)
- apparent KD of MS2 coat protein ([1]; input ligand: FMN 200 uM): 4.46 nM
- apparent KD of MS2 coat protein [1, 3]: 9.9 nM
- apparent KD of MS2 coat protein ([1]; input ligand: none): 24.6 nM

Sequence: AAUAGUUGCGGGCAGGAUAUGUAUUAAAAUACAUGAGGAUCACCCAUGUGCGGGUAUAACACCCGACAGAAGGGCCAAUCGCGAC [Mat - Same State 2 - Mod of UCT - D94] (puzzle: Same State 2)
- apparent KD of MS2 coat protein [1, 4]: 25.7 nM
- apparent KD of MS2 coat protein [1, 5]: 216 nM
- apparent KD of MS2 coat protein [1, 6]: 233 nM

Sequence: GGUCGGUCCUACAUGAGGAUCACCCAUGUUCCGGAAACGGCAUAGGAUAUCUGUCCGAAAAGGUCAGAGAAGGGUGAACCGACC [Fiskers NG3ss - 73] (Eterna round: R96, puzzle: Same State NG 3)
- apparent KD of MS2 coat protein ([1]; input ligand: FMN 200 uM): 153 nM
- apparent KD of MS2 coat protein [1, 3]: 118 nM
- apparent KD of MS2 coat protein ([1]; input ligand: none): 189 nM

Sequence: AACAUGAGGACAUGAACAUGAGGAUCACCCAUGUAUGUUUAUAAGGAUAUAUGAGGAGGAGGAGAAUAGAAGGUAUAGGGAGGG [This also seems to work] (Eterna round: R96, puzzle: Same State NG 3)
- apparent KD of MS2 coat protein ([1]; input ligand: FMN 200 uM): 45 nM
- apparent KD of MS2 coat protein [1, 3]: 35.5 nM
- apparent KD of MS2 coat protein ([1]; input ligand: none): 43.2 nM

Sequence: ACAUGAGGAUCACCCAUGUAUGCUCAGGAAACUGUGCAGCAUUAGGAUAUGGAUCCUAAUUGGAUCCAGAAGGAGUGAAUUAUU [Fiskers NG3ss - 26] (Eterna round: R96, puzzle: Same State NG 3)
- apparent KD of MS2 coat protein ([1]; input ligand: FMN 200 uM): 82.2 nM
- apparent KD of MS2 coat protein [1, 3]: 117 nM
- apparent KD of MS2 coat protein ([1]; input ligand: none): 126 nM

Sequence: ACAAGCUUUUUGCUCAUCUUAUGUCCGAAACAUGAGGAUCACCCAUGUAUAGAUUAUGUGUUGUUGUAGAUACAAGA [JR_SHM208A_Sub063] (puzzle: Sensor for hsa-mir-208a)
- apparent KD of MS2 coat protein [1, 4]: 22.7 nM
- apparent KD of MS2 coat protein [1, 5]: 19.6 nM
- apparent KD of MS2 coat protein [1, 6]: 28.3 nM

Sequence: AUCCUACAUGAGGAUCACCCAUGUGACGCCUCGAUAGGAUAUGCGUGUGCCUUGGCGCAUGCAGAAGGAUUGUUGC [JL Aveso mod 7] (puzzle: Same State 1)
- apparent KD of MS2 coat protein [1, 4]: 69.2 nM
- apparent KD of MS2 coat protein [1, 5]: 17.5 nM
- apparent KD of MS2 coat protein [1, 6]: 27.1 nM

Sequence: AUUAAACAUGAGGAUCACCCAUGUCAACAAAGUCGAGGAUAUGGGCAAAUAAAAUAAGAACCAGAAGGCGACUAAU [salish99_ss1_r3_071] (puzzle: Same State 1)
- apparent KD of MS2 coat protein [1, 5]: 22.3 nM

Sequence: GGAUUGGAGGCAGGAUAUGGGCUCAGAACAUGAGGAUCACCCAUGUAAAACGGCGCGAUGCGCCACCAGAAGGGCCUCCGAUCG [Tiaonbira] (Eterna round: R96, puzzle: Same State NG 2)
- apparent KD of MS2 coat protein ([1]; input ligand: FMN 200 uM): 12.8 nM
- apparent KD of MS2 coat protein [1, 3]: 23.8 nM
- apparent KD of MS2 coat protein ([1]; input ligand: none): 37.3 nM

Sequence: UGUUUGUUGUGAGGAUAUACAUACACCUUACAUGAGGAUCACCCAUGUUGUAAUUUUGAUAGUUAGUAGAAGGCACUUGGUUAU [JR_SSNG2_Sub045] (Eterna round: R96, puzzle: Same State NG 2)
- apparent KD of MS2 coat protein ([1]; input ligand: FMN 200 uM): 35.2 nM
- apparent KD of MS2 coat protein [1, 3]: 64.3 nM
- apparent KD of MS2 coat protein ([1]; input ligand: none): 71.5 nM

Sequence: GGAAUAUUUACAGGAUAUGAGUUGUAAAGUCGAUCAGAAGGGUAGGUGUCUUACACGGUGUGUUACAUGAGGAUCACCCAUGUU [SameState NG1 #20] (Eterna round: R96, puzzle: Same State NG 1)
- apparent KD of MS2 coat protein ([1]; input ligand: FMN 200 uM): 136 nM
- apparent KD of MS2 coat protein [1, 3]: 147 nM
- apparent KD of MS2 coat protein ([1]; input ligand: none): 215 nM

Sequence: CCGAUUUAUGGAGGAUAUGGAGCCUUAUUGGCUCCAGAAGGUCAAUAACAUGAGGAUCACCCAUGUACGGCGGUCAAUAGACCG [Eli NG1ss - 70] (Eterna round: R96, puzzle: Same State NG 1)
- apparent KD of MS2 coat protein ([1]; input ligand: FMN 200 uM): 24.8 nM
- apparent KD of MS2 coat protein [1, 3]: 28.1 nM
- apparent KD of MS2 coat protein ([1]; input ligand: none): 34.6 nM

Sequence: GACAAUCUAUCUGAGGAUAUCAUGAAUAAAACAUGAGGAUCACCCAUGUGCAGGAUAACUGCAAAUGAGAAGGCAGAUAGAUUGG [Mat - Same State 2 - Mod - D9] (puzzle: Same State 2)
- apparent KD of MS2 coat protein [1, 4]: 9.21 nM
- apparent KD of MS2 coat protein [1, 5]: 20 nM
- apparent KD of MS2 coat protein [1, 6]: 18 nM

Sequence: GGAGCCGGCCUAGGAUAUUUCAUAUAAAAACAUGAGGAUCACCCAUGUAGGCCAGAAGGCCUUGGGAAGAAGGAGGUCGGCUCC [Loop Effect - U25] (Eterna round: R96, puzzle: Same State NG 2)
- apparent KD of MS2 coat protein ([1]; input ligand: FMN 200 uM): 12.4 nM
- apparent KD of MS2 coat protein [1, 3]: 27.2 nM
- apparent KD of MS2 coat protein ([1]; input ligand: none): 30.1 nM

Sequence: UGUUGUAUUACAGGAUAUCUAUGAUUUUUAUAUAGAGAAGGGUAUUCACAUGAGGAUCACCCAUGUAUAUACGAGGAAGUUGUG [JMF's solution 68] (Eterna round: R96, puzzle: Same State NG 1)
- apparent KD of MS2 coat protein [1, 3]: 39.6 nM

Sequence: AAUUCAAACAGAGGAUAUUGUUUAUCUCUAUUGCAAGAAGGCUGAUCUUACUACCCACUUAUGAAACAUGAGGAUCACCCAUGU [JR_SSNG1_Sub018] (Eterna round: R96, puzzle: Same State NG 1)
- apparent KD of MS2 coat protein [1, 3]: 30.1 nM

Sequence: AGCUUUUAAUUAGGAUAUGGUCACAUGAGGAUCACCCAUGUAACGAUGAUAUAAUGUGGUCAAGACUAGAAGGGAUCGCUAACA [SameState NG2 #69] (Eterna round: R96, puzzle: Same State NG 2)
- apparent KD of MS2 coat protein ([1]; input ligand: FMN 200 uM): 320 nM
- apparent KD of MS2 coat protein [1, 3]: 282 nM
- apparent KD of MS2 coat protein ([1]; input ligand: none): 284 nM

Sequence: AGGCUCGUGCUAGGAUAUCUAGGAUAUGGACGAGGAUUACCCGAGGAGCAUUAGCCCACCAGAGGAGAGAAGGAGCUACAUGCG [pwkr ssNG2 2F5 2FMN.12] (Eterna round: R96, puzzle: Same State NG 2)
- apparent KD of MS2 coat protein ([1]; input ligand: FMN 200 uM): 1320 nM
- apparent KD of MS2 coat protein [1, 3]: 509 nM
- apparent KD of MS2 coat protein ([1]; input ligand: none): 513 nM

Sequence: AAUGUAUGGCACAUGAGGAUCACCCAUGUGCGAGGACCGGUACGGCCGCCACUCGGUCGGUGGUUAAUGAAGCUAUACAUUAAUG [XTryp A #13]
- apparent KD of MS2 coat protein ([2]; input ligand: arginine 13.2 mM): 26.8 nM
- apparent KD of MS2 coat protein [2, 7]: 53.5 nM
- apparent KD of MS2 coat protein [2, 8]: 55.1 nM

Sequence: GGGCCUACCUGAAGGAGCGACAUGAGGAUCACCCAUGUCUCCCGUUAUGGGAGUUCUUUAGGUCAGGUAGGUCGCAGGUAGGGCC [#1 Exclusion - Arginine B Attempt #4 (Inspired by Omei)]
- apparent KD of MS2 coat protein ([2]; input ligand: arginine 13.2 mM): 15.3 nM
- apparent KD of MS2 coat protein ([2]; input ligand: none): 12.6 nM
- apparent KD of MS2 coat protein [2, 7]: 17 nM
- apparent KD of MS2 coat protein [2, 8]: 14.1 nM
- apparent KD of MS2 coat protein [2, 9]: 14.1 nM

Sequence: AAUAACUUGAGGAUCACCCAAGUAAAAGAUACCAGAGUGAUGAUCCUCCCUUGGCAGCUUAACGCUGAUUGAUUACAAUCAGCGA
- apparent KD of MS2 coat protein ([2]; input ligand: arginine 13.2 mM): 63.2 nM
- apparent KD of MS2 coat protein ([2]; input ligand: none): 62.3 nM
- apparent KD of MS2 coat protein [2, 7]: 182 nM
- apparent KD of MS2 coat protein [2, 8]: 121 nM
- apparent KD of MS2 coat protein [2, 9]: 45.8 nM

Sequence: CUAUAAGUACCGGUCCUCAGAUCCUCAUGACGAGGACCGGUACGGCCGCCACUCGAAACAUGAGGAUCACCCAUGUAAUAAUAUU [Brourdmod10]
- apparent KD of MS2 coat protein ([2]; input ligand: arginine 13.2 mM): 19 nM
- apparent KD of MS2 coat protein [2, 7]: 31.5 nM
- apparent KD of MS2 coat protein [2, 8]: 24.2 nM

Sequence: UGAAAGUAGGGAAGGAGCGCUACAACAUGAGGAUCACCCAUGUUAUGAGGAUCACCCGUGUGGCAGGUAGGUCGCCCAAAACAUG [#13 Same State - Arginine B]
- apparent KD of MS2 coat protein ([2]; input ligand: arginine 13.2 mM): 40.6 nM
- apparent KD of MS2 coat protein ([2]; input ligand: none): 43.9 nM
- apparent KD of MS2 coat protein [2, 7]: 46.7 nM
- apparent KD of MS2 coat protein [2, 8]: 35.6 nM
- apparent KD of MS2 coat protein [2, 9]: 31.9 nM

Sequence: ACAUGAGGAUCACCCAUGUACAUAAGGGAAGGAGCGCGGUGAAACGCAGGUAGGUCGCCCAUAAUAACAAACAUUAAAUUCAUGU [LeftA2]
- apparent KD of MS2 coat protein ([2]; input ligand: arginine 13.2 mM): 28 nM
- apparent KD of MS2 coat protein ([2]; input ligand: none): 14.3 nM
- apparent KD of MS2 coat protein [2, 7]: 18.6 nM
- apparent KD of MS2 coat protein [2, 8]: 17.9 nM
- apparent KD of MS2 coat protein [2, 9]: 16.6 nM

Sequence: CGAUCUUUCGAAAGAAGGAUCGAUUCUGAUACCAGAGACGAAAGUCUCCCUUGGCAGCAGUGCCAACAUGAGGAUCACCCAUGUA [Theophylline A 8]
- apparent KD of MS2 coat protein ([2]; input ligand: arginine 13.2 mM): 26.4 nM
- apparent KD of MS2 coat protein [2, 7]: 26 nM
- apparent KD of MS2 coat protein [2, 9]: 23.6 nM

Sequence: CAUACUUUAUCCUAUGAGCCUAUUUGUGAUACCAGCAUCUAAAUUUGCCCUUGGCAGCACUUACAUGAGGAUCACCCAUGUUUUA [JR_NU_SSTheophyA_Sub028]
- apparent KD of MS2 coat protein ([2]; input ligand: arginine 13.2 mM): 22 nM
- apparent KD of MS2 coat protein [2, 7]: 33.6 nM
- apparent KD of MS2 coat protein [2, 9]: 24 nM
